The record followed here is KR20220059888A (dated 2022).

One experiment addresses T1, 랫 Tie2 단백질 (랫 (rat), UniProt A0ABK0L6J5 19-1116).
T1 construct: whole, on cells; also called 다른 종 유래의 Tie2 단백질
As to the kind of experiment: flow cytometry; HEK293T cells transfected with rat Tie2. On the technique in general: In flow cytometry, cells or beads pass a laser one at a time.

Another experiment has as its target T2, 개 Tie2 단백질 (개 (dog), UniProt A0A8I3S0B4 27-1128).
T2 construct: whole, on cells; also called 다른 종 유래의 Tie2 단백질
As to the kind of experiment: flow cytometry; HEK293T cells transfected with dog Tie2.

For another experiment, the target named is T3, 마우스 Tie2 단백질 (마우스 (mouse), UniProt Q02858 23-1122).
T3 construct: whole, on cells; also called 다른 종 유래의 Tie2 단백질
Nature of the experiment: flow cytometry; HEK293T cells transfected with mouse Tie2.

T3 sequence (Q02858 23-1122): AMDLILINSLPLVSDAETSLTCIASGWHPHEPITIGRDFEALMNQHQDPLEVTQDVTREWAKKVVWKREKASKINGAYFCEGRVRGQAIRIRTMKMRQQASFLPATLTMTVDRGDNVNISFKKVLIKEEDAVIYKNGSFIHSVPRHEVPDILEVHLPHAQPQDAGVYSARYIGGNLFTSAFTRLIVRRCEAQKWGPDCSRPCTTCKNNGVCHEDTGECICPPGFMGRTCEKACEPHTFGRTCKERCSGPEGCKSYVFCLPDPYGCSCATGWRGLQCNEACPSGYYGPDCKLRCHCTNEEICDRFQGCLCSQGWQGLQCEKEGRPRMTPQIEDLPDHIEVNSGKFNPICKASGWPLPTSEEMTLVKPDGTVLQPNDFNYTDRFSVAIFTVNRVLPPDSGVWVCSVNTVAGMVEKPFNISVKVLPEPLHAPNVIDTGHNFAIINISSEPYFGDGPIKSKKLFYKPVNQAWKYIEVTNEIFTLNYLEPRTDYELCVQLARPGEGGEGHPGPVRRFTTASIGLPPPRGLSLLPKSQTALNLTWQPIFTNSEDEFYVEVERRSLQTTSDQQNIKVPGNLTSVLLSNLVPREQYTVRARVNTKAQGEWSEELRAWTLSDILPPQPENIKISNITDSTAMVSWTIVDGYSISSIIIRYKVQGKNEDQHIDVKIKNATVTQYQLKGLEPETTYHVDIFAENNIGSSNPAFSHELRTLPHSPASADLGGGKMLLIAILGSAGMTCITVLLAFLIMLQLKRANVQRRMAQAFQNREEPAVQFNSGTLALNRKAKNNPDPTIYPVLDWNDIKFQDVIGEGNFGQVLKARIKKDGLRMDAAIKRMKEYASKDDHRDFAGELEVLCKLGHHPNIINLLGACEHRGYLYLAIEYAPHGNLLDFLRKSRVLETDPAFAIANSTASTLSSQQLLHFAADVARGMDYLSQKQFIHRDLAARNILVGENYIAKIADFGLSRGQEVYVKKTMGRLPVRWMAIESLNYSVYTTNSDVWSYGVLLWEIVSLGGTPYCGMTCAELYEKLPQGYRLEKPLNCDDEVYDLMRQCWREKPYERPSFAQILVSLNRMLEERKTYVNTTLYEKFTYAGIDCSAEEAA

B1: Ang1mab2-1 (antibody, human IgG1, kappa, V domains shown)
VH: QVQLVESGGGVVQPGRSLRLSCAASGFTFSSYAMHWVRQAPGKGLEWVAVISYDGSNKYYADSVKGRFTISRDNSKNTLYLQMNSLRAEDTAVYYCARQYSGVFEYWGQGTLITVSS
VL: DIQMTQSPDSLAVSLGERATINCKSSQSVLYRSNNRNYLAWYQQKLGQPPQLLIYWASTRESGVPDRFSGSGSGADFTLTISSLQAEDVAVYYCQQYFSIPYTFGQGTKLEIKR
notes: also called 제2 기본 항체
As to B1, the binding result with 랫 Tie2 단백질, in the experiment with 개 Tie2 단백질 and with 마우스 Tie2 단백질 was “no binding (tested: 5-g/ml (so in the source))” throughout.
